Experimental data: patent publication US20250042994A1 (HAINAN SIMCERE ZAIMING PHARMACEUTICAL, published 2025)

T1: human CD19 exon1-3-His tag protein (human, UniProt P15391 20-186, limits assumed)
T1 construct: membrane-distal part of the extracellular region, made in HEK293E cells; not shown: His tag
T1 sequence (looked up): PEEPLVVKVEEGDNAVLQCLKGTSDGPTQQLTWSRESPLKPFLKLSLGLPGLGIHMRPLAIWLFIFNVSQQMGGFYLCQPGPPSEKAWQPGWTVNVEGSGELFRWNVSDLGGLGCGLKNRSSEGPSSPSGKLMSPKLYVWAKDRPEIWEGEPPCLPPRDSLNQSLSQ

T2: Human CD19-his protein (human, UniProt P15391 20-291)
T2 construct: bought protein; also called recombinant human CD19-His; CD19 full-length protein; not shown: His tag
T2 sequence (looked up): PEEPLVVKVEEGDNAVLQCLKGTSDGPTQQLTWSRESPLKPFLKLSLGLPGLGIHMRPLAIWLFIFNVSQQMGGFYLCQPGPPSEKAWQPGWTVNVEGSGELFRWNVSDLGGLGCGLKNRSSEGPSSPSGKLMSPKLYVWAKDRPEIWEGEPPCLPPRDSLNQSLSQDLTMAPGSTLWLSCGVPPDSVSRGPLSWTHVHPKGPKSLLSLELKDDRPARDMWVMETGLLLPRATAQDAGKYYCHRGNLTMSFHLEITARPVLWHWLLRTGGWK


How the values were obtained:
[1] = biological target: T1, human CD19 exon1-3-His tag protein; test: ELISA on coated human CD19 exon 1-3-His
Description: Human CD19-his protein (purchased from ACROBiosystems, catalog number: CD9-H52H2) was diluted with PBS to a final concentration of 4 μg/mL, and then added to a 96-well ELISA plate at 100 μl/well. The plate was sealed with a plastic film and incubated overnight at 4° C., the plate was washed 2 times with PBS the next day, and then a blocking solution [PBS+2% (w/w) BSA] was added for blocking at room temperature for 2 h. The blocking solution was poured off, and 100 nM gradiently diluted CD19 chimeric antibody or control antibody was added at 50 μl/well. After incubation at 37° C. for 2 h, the plate was washed 3 times with PBS. […] TMB substrate was added at 50 μl/well, and incubated at room temperature for 10 min, and then a stop solution (1.0 N HCl) was added at 50 μl/well. The OD450 nm values were read by an ELISA microplate reader (Multimode Plate Reader, EnSight, purchased from Perkin Elmer).
CD19 protein contains 4 exons in the extracellular region, in which exons 1-3 are located at the membrane-distal end and exon 4 is located at the membrane-proximal end. […] To identify the distribution of antigen binding epitopes of the chimeric antibodies, human CD19 exon 1-3-His (membrane-distal end) was used to coat at 2 μg/mL according to the ELISA method in example 5.1.

Human CD19-his protein = biological target: T2, Human CD19-his protein; test: SPR Biacore, Ab captured on Protein A, CD19-His analyte
How it was run: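 Apparent KD came from a Langmuir 1:1 fit of double-referenced sensorgrams. Recombinant human CD19-His analyte (top 200 nM, 1:1 serial dilution, 5 concentrations) flowed over Protein A-captured antibody for 240 s at 30 μl/min, then buffer for up to 600 s. Running buffer HBS-EP+ at 25 °C; regeneration with 10 mM glycine pH 1.5.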

| binding result [1] | Kd (Human CD19-his protein) | koff (Human CD19-his protein) | kon (Human CD19-his protein) | Binder |
| --- | --- | --- | --- | --- |
| no binding (tested: 100 nM) | 13.9 nM | 0.002 s⁻¹ | 143000 M⁻¹ s⁻¹ | F4.58.6 (antibody, human IgG1, V domains shown, human-murine chimeric antibody, human IgG1 constant) VH: QVQLQQPGAELVKPGASVKLSCKASGYTFTSYWMHWVKQRPGQGLEWIGEIDPSDSYSNYNQKFKGKATLTVDKSSSTAYMQLSSLTSEDSAVYYCARSNYGSSYGYFDVWGAGTTVTVSS VL: QIVLTQSPAIMSASPGEKVTMTCSVSSSLSYMHWYQQKPGTSPKRWIYDTSKLASGVPARFSGSGSGTSYSLTISSMEAEDAATYYCHQRSSYPTFGGGTKLEIK |
| no binding (tested: 100 nM) | 0.362 nM | 0.000171 s⁻¹ | 472000 M⁻¹ s⁻¹ | F4.18.13 (antibody, human IgG1, V domains shown, human-murine chimeric antibody, human IgG1 constant) VH: QVQLQQSGPELVKPGASVKISCKASGYAFSSFWMNWVKQRPGEGLEWIGRIYPGDGDTNYNGKFKGKATLTADDSSSTAYMQLSSLTSVDSAVYFCAREVIAAVVTTDFDYWGQGTTLTVSS VL: DIQMTQTTSSLSASLGDRVTISCRTSQDISNYLNWYLQKPDGTVKLLIYYTSGLHSGVPSRFSGSGSGTDYSLTISNLEPEDIATYFCQQGKTLPYTFGGGTKLEIK |
| no binding (tested: 100 nM) | 13.4 nM | 0.00239 s⁻¹ | 179000 M⁻¹ s⁻¹ | F4.41.1 (antibody, human IgG1, V domains shown, human-murine chimeric antibody, human IgG1 constant) VH: QVQLQQSGAELVRPGTSVKVSCKASGYAFTNYLIEWVKQRPGQGLEWIGVINPGSGDTLYNEKFKGKATLTADKSSTTAYMQLSGLTSDVSAIYFCARSPPITTIVADYFDYWGQGTTLTVSS VL: DIQMTQTTSSLSASLGDRVTISCRASQDISNYLNWYQQKPDGTVKLLIYYTSRLHSGVPSRFSGSGSGADYSLTISNLEQEDIATYFCQQGKTLPYTFGGGTKLEIK |
| no binding (tested: 100 nM) | 1.9 nM | 0.000388 s⁻¹ | 205000 M⁻¹ s⁻¹ | F4.191.1 (antibody, human IgG1, V domains shown, human-murine chimeric antibody, human IgG1 constant) VH: QVQLQQPGAELVRPGASVKLSCKASGYTFTSYWINWVKQRPGQGLEWIGNIHPSDSYTNYNQKFKDKATLTVDKSSSTAYMQFSSPTSEDSAVYYCTREDYYYGSNYDAMDYWGQGTSVTVSS VL: DIVMTQSHKFMSTSVGDRVNITCKASQDVGSSVAWYQQKPGQSPKLLIYWASTRHAGVPDRFTGSGSGADFTLTISNVQSEDLADYFCQQYSTYPLTFGAGTKLELK |
| no binding (tested: 100 nM) | 0.487 nM | 0.000129 s⁻¹ | 264000 M⁻¹ s⁻¹ | F4.48.12 (antibody, human IgG1, V domains shown, human-murine chimeric antibody, human IgG1 constant) VH: QMQLKESGPGLVAPSQSLSITCTVSGFSLTDYGVSWIRQPPGKGLEWLGVIWGSGSTFYNSALTSRLSISKDNSKSQVFLKMNSLQTADTAMYFCAKHHYYGGSFAMDYWGQGTSVTVSS VL: DIQMTQASSSLSASLGDRVTISCKTSQDISNYLNWYQQKPDGTFKLLIHYTSRLHSGVPSRFSGSGSGSDYSLTISNLEREDIATYFCQQGNSLPYTFGGGTKLEMK |
| no binding (tested: 100 nM) | 3.45 nM | 0.000452 s⁻¹ | 131000 M⁻¹ s⁻¹ | F4.33.12 (antibody, human IgG1, V domains shown, human-murine chimeric antibody, human IgG1 constant) VH: QVQLQQSGAELVRPGSSVKISCKGSGYAFSSYWMNWVKQRPGQGLEWIGQIYPGDGDTNYNGKFKGKATLTADKSSSTAYMQLSSLTSEDSAVYFCARAGFYYGSDSSMDYWGQGTSVTVSS VL: not shown |
| no binding (tested: 100 nM) | 15.3 nM | 0.00351 s⁻¹ | 229000 M⁻¹ s⁻¹ | F4.35.5 (antibody, human IgG1, V domains shown, human-murine chimeric antibody, human IgG1 constant) VH: EIQLQQSGPELVKPGASVKVSCKASGYAFTSYNMYWVKQSHGKSLEWIGYIDPYNGDTRYNQKFKGKATLTVDKSSSTAYMHLNSLTSEDSAVYYCTRSGTGRDYWGQGTTLTVSS VL: QIVLTQSPAIMSASPGEKVTMTCSASSSISYMFWFQQKPGSSPRLLIYDTSSLASGVPVRFSGSGSGTSYTLTISRMEAEDAATYYCQQWSNYPYTFGGGTKLEMK |
| no binding (tested: 100 nM) | 17.6 nM | 0.00128 s⁻¹ | 73000 M⁻¹ s⁻¹ | F4.49.11 (antibody, human IgG1, V domains shown, human-murine chimeric antibody, human IgG1 constant) VH: DVQLRASGPGLVKPSQSLSLTCSVTGYSITSGYYWNWIRQFPGNKLEWMGCISYDGTNNYNPSLKNRISFTRDTSKNQFFLNLNSVTTEDSATYYCARRVYYRYDGVVDYWGQGTSVTVSS VL: ENVLTQSPAIMSASPGEKVTMTCSASSSVSYIHWYQQKSSTAPKLWIYDTSKLASGVPGRFSGSRSRNSYSLTISSMEAEDVATYYCFQGSGYPLTFGSGTKLEIK |
| no binding (tested: 100 nM) | 5.94 nM | 0.00147 s⁻¹ | 248000 M⁻¹ s⁻¹ | F4.22.6 (antibody, human IgG1, V domains shown, human-murine chimeric antibody, human IgG1 constant) VH: QVQLQQSGPELVKPGASVKISCKASGYAFSSFWMNWVKQRPGQGLEWIGRIYPGDGDTNYNGKFKGKATLTADKSSTTAYMHLSSLTSVDSAVYFCTRSVITAVVDWYFDVWGAGTTVTVSS VL: QIVLSQSPAILSASPGEKVTLTCRASSSVNFMHWYQQKPGSSPKPWIYATSNLASGAPARFSGSGSGTSYSLTISRVEAEDAAAYYCQQWSSYPIFTFGSGTKLEIK |
| no binding (tested: 100 nM) | 0.974 nM | 8.84e-05 s⁻¹ | 90800 M⁻¹ s⁻¹ | F3.133.14 (antibody, human IgG1, V domains shown, human-murine chimeric antibody, human IgG1 constant) VH: QVQLQQPGAELVMPGASVKLSCKASGYTFTNYWMHWVKQRPGQGLEWIGEIDPSDYYANYNQKFKGKATLTVDKSSSTAYMQLSSLTSEDSAVYYCARSHYYANSYNYWGQGTTLTVSS VL: EIELTQSPTTMAASPGEKITITCSASSSISSDYLHWYQQKPGFSPKLLIYRTSNLASGLPARFSGSGSGTSYSLTIGTMEAEDVATYYCQQGSSVPRMLTFGAGTKLELK |
| no binding (tested: 100 nM) | 9.47 nM | 0.0019 s⁻¹ | 201000 M⁻¹ s⁻¹ | F4.4.6 (antibody, human IgG1, V domains shown, human-murine chimeric antibody, human IgG1 constant) VH: QVQLQQSGAELARPGASVKLSCKASGYTFTSYWMQWVKQRPGQGLEWIGAIYPGDGDSRYTQKFKGKATLTADKSSSTAYMQLSSLASEDSAVYYCARSTTTVLGNNFEYWGQGTTLTVSS VL: QIVLTQSPAIMSALPGEKVTMTCSASSSVSSMHWYQQKSGTSPKRWIYDTSKLASGVPARFSGSGSGTSYSLTISSMEAEDAATYYCQQWSSNPWTFGGGTKLEIK |
| no binding (tested: 100 nM) | 0.904 nM | 0.000167 s⁻¹ | 185000 M⁻¹ s⁻¹ | F4.21.2 (antibody, human IgG1, V domains shown, human-murine chimeric antibody, human IgG1 constant) VH: QVQLKQSGPGLVQPSQSLSITCTVSGFSLSTYGVHWVRQSPGRGLEWLGVIWIGGTTDYNAAFISRLTISKDNSRGQVFFKMDSLQANDTAIYYCARKGYYKYDGGYYYAMDYWGQGTSVTVSS VL: DIQMTQSSSYLSVSLGGRVTITCKASDHINNWLAWYQQKPGNAPWLLISGATSLETGVPSRFSGSGSGKDYTLSISSLQTEDVATYYCQQYWSTPLTFGAGTKLELK |
| no binding (tested: 100 nM) | 2.72 nM | 0.000949 s⁻¹ | 348000 M⁻¹ s⁻¹ | F4.15.9 (antibody, human IgG1, V domains shown, human-murine chimeric antibody, human IgG1 constant) VH: QVQLQQSGPELVKPGASVKISCKASGYAFSSSWMNWLKQRPGQGLEWIGRIYPGDGDTNYNGKFKGKATLTADESSSTAYMQLSSLTSVDSAVYFCARGITTIITIAWFASWGQGTLVTVSA VL: QIVLSQSPTILSASPGEKVTMTCRASSSVSYMHWYQQKPGSSPKPWIYATSNLASGVPPRFSGSGSGTSYSLTISRVGAEDAATYYCQQWSSDPWTFGGGTKLEIK |
| no binding (tested: 100 nM) | 0.926 nM | 0.00017 s⁻¹ | 184000 M⁻¹ s⁻¹ | F4.78.1 (antibody, human IgG1, V domains shown, human-murine chimeric antibody, human IgG1 constant) VH: QVQIQQSGAELARPGASVKLSCKASGYTFTNYWMQWIKQRPGQGLEWIGAIYPGDGDTRYTQKFKGKATLTADKSSSTAYMQLSSLASEDSAVYYCAREEVWSPYGMDYWGQGTSVTVSS VL: QIVLTQSPAIMSASPGEKVTITCSASSSVSYMGWFQQKPGTSPKLWIYSTSNLASGVPARFSGSGSGTSYSLTISRMEAEDAATYYCQQRSIYPLTFGAGTKLELK |
| no binding (tested: 100 nM) | 9.11 nM | 0.00327 s⁻¹ | 359000 M⁻¹ s⁻¹ | F4.37.6 (antibody, human IgG1, V domains shown, human-murine chimeric antibody, human IgG1 constant) VH: QVQLQQSGAELARPGASVKLSCKASGYTFTSFWMQWLKQRPGQGLEWIGTIYPGDGDTRYTQKFKGKATLTADKSSNTAYMQLSSLASEDSAVYYCARGALSNYGGFAYWGQGTLVTVSA VL: NIVLTQSPASLAVSLGQRATISCRASESVDSYGHSFMHWYQQKPGQPPKLLIYLASNLESGVPARFSGSGSRTDFTLTIDPVEADDAATYYCQQNNEDPWTFGGGTKLEIK |
